PMC6250423, “Molecular mechanisms that stabilize short term synaptic plasticity during presynaptic homeostatic plasticity” (eLife, 2018)

Key:
[1] = biological target: T1, MBP-Rop (recombinant wild-type Rop, Drosophila Unc-18) (Drosophila melanogaster, UniProt Q07327 1-597); assay: pull-down; GST-syx1A^ΔC (2 ug) bound to GST bind resin, 1 hr at 4°C with MBP-Rop or MBP-Rop^G11 at 0-6 uM in NP40 buffer (1% NP-40, 150 mM NaCl, 2 mM EDTA, phosphate); SDS-PAGE, Coomassie, fraction bound quantified in ImageJ, Kd from a dose response curve fit (Prism 6); n = 2; details: both partners purified
T1 construct: Rop (Ras opposite, Unc-18 orthologue), Drosophila melanogaster; cDNA SD04216 amplified with primers from the start ATG to the stop codon and cloned into pMAL-c5E; Expressed from pMAL-c5E (NEB N8110); printed size of the fusion 110 kDa; also called MBP-Rop^WT; Ras opposite; source: Rosetta cells (Novagen), purified (amylose resin, eluted with maltose)
T1 sequence (Q07327 whole entry, the tested form may be a part): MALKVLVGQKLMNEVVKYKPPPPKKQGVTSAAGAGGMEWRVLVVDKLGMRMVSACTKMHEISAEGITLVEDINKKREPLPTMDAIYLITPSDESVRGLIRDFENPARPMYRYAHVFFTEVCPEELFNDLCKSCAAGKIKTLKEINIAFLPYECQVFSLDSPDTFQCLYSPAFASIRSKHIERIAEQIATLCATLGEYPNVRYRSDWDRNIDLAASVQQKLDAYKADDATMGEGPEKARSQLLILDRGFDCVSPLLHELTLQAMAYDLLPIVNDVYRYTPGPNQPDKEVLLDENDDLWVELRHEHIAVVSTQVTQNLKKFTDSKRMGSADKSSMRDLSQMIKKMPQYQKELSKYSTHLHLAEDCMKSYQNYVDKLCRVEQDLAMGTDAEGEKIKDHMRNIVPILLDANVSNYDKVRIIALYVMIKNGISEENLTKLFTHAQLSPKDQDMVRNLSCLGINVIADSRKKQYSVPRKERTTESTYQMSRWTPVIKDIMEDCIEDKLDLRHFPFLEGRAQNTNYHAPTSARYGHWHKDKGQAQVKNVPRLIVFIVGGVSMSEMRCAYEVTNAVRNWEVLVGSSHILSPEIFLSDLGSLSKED

MBP-Rop^G11 (D45N) = biological target: T2, MBP-Rop^G11 (D45N) (Drosophila melanogaster, UniProt Q07327 1-597, D45N); assay: as above; details: both partners purified
T2 construct: Rop (Ras opposite, Unc-18 orthologue), Drosophila melanogaster; PMAL-Rop with the point mutation of the Rop^G11 allele (Asp45 to Asn; nucleotide G133A) made by site-directed mutagenesis; Same construct as m1 with D45N; the mutation is that of the Rop^G11 allele of Harrison et al., 1994; also called recombinant Rop^G11 mutant protein; source: Rosetta cells (Novagen), purified (amylose resin, …)
T2 sequence (Q07327 whole entry D45N): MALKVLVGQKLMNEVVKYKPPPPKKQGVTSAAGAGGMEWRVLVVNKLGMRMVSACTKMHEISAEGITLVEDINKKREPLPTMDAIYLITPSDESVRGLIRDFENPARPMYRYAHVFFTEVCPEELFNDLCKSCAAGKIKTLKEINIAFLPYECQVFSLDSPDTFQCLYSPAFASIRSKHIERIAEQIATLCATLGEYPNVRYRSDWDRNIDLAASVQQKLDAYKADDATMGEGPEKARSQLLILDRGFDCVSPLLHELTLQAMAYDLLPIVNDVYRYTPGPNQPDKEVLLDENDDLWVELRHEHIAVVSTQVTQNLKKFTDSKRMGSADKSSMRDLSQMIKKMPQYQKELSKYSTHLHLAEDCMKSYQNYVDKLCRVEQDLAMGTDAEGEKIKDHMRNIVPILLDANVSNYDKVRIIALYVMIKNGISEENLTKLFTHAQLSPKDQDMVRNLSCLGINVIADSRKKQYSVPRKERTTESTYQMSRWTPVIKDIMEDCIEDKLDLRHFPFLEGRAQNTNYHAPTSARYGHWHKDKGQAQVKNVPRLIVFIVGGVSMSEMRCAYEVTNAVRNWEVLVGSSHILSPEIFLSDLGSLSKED

Kd [1]: 400 nM
B1: GST-syx1A^ΔC (Syntaxin1A, amino acids 1-268) (domain or fragment, Drosophila melanogaster, UniProt Q24547 1-268, looked up)
chain: MTKDRLAALHAAQSDDEEETEVAVNVDGHDSYMDDFFAQVEEIRGMIDKVQDNVEEVKKKHSAILSAPQTDEKTKQELEDLMADIKKNANRVRGKLKGIEQNIEQEEQQNKSSADLRIRKTQHSTLSRKFVEVMTEYNRTQTDYRERCKGRIQRQLEITGRPTNDDELEKMLEEGNSSVFTQGIIMETQQAKQTLADIEARHQDIMKLETSIKELHDMFMDMAMLVESQGEMIDRIEYHVEHAMDYVQTATQDTKKALKYQSKARRKK
notes: Syntaxin 1A, Drosophila melanogaster, amino acids 1-268; Expressed from pGEX-4T1; printed size of the fusion 60 kDa; The nucleotide change A802T would turn codon 268 into a stop, so the chain may end at residue 267 rather than 268; also called recombinant Syntaxin1A
Kd (MBP-Rop^G11 (D45N)): 36.1 µM
